Reference: patent publication US20250011363A1, “OPTIMIZED SHORTENED PEPTIDE THAT BINDS TO ACETYLCHOLINE RECEPTOR, AND USE THEREOF” (SKINMED CO., LTD., priority 2021, published 2025)

These substances were tested against acetylcholine receptor (Homo sapiens, UniProt P02708) (assay: SPR binding affinity (RU) of optimized 5mer/6mer/7mer peptides, Examples 6-7). Settings: SPR, Resonance Units; peptides tested at 10 μM; 6mer-2 Top sequence (Table 12).
Summary of the method: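 Synthetic 5mer and 6mer peptides, built from frequent or infrequent amino-acid combinations, were tested at 10 μM for binding to the human acetylcholine receptor by surface plasmon resonance. Binding is reported in response units (RU).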

acetylcholine receptor, sequence (P02708 21-457): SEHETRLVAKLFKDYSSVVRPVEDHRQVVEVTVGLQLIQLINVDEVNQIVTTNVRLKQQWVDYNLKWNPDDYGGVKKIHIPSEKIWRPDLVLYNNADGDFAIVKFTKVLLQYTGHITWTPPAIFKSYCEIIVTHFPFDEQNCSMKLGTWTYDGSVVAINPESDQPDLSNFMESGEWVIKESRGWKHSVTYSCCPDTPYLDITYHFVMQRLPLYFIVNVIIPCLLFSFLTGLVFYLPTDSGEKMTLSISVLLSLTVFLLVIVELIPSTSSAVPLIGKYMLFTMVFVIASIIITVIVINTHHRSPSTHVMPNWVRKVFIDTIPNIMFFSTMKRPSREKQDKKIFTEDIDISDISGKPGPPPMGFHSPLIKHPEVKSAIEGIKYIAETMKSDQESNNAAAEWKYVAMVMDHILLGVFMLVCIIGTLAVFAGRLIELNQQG

Question: How did the Binding affinity turn out when 6mer-2-367 (RWRSRR) was run?
Answer: 142 Ru

Question: Which Binding affinity does the source give for 6mer-2-348 (KSQLRR) here?
Answer: 153 Ru

Question: 6mer-2-371 (KRLSRR) was tested. Which Binding affinity did it give?
Answer: 148 Ru

Question: Which Binding affinity does the source give for 6mer-2-335 (KWRSRR) here?
Answer: 153 Ru

Question: Which Binding affinity does the source give for 6mer-2-218 (KGVSKK) here?
Answer: 147 Ru

Question: With 6mer-2-352 (RWFYRR) as the substance, how does the Binding affinity read?
Answer: 137 Ru

Same assay, conditions: SPR, peptides at 10 μM; 6mer-2 Bottom sequence

Question: With 6mer-2-1090 (KEMHKK) as the substance, how does the Binding affinity read?
Answer: 33 Ru

Question: With 6mer-2-1059 (RFADRR) as the substance, how does the Binding affinity read?
Answer: 35 Ru

Question: 6mer-2-1191 (KKADRK) was tested. Which Binding affinity did it give?
Answer: 35 Ru

Question: Which Binding affinity does the source give for 6mer-2-1195 (KMTERK) here?
Answer: 25 Ru

Same assay, conditions: SPR, peptides tested at 10 μM; 5mer Top sequence

Question: How did the Binding affinity turn out when 5mer-133 (KGQRK) was run?
Answer: 84 Ru

Question: For 5mer-339 (KWVRK), which Binding affinity is on record?
Answer: 87 Ru

Question: With 5mer-110 (KRRLK) as the substance, how does the Binding affinity read?
Answer: 76 Ru

Question: 5mer-111 (KSVLK) was tested. Which Binding affinity did it give?
Answer: 85 Ru

Question: For 5mer-50 (KLLCR), which Binding affinity is on record?
Answer: 63 Ru

Question: How did the Binding affinity turn out when 5mer-457 (RGQYK) was run?
Answer: 59 Ru

Question: 5mer-118 (RVICK) was tested. Which Binding affinity did it give?
Answer: 87 Ru

Question: Which Binding affinity does the source give for 5mer-464 (RGVTR) here?
Answer: 57 Ru

Question: With 5mer-363 (KRVRK) as the substance, how does the Binding affinity read?
Answer: 59 Ru

Question: With 5mer-508 (KGLQK) as the substance, how does the Binding affinity read?
Answer: 67 Ru

Question: For 5mer-166 (KSFQR), which Binding affinity is on record?
Answer: 55 Ru

Question: With 5mer-390 (KRFCR) as the substance, how does the Binding affinity read?
Answer: 64 Ru

Question: 5mer-473 (RLVQR) was tested. Which Binding affinity did it give?
Answer: 75 Ru

Question: For 5mer-496 (KGIQK), which Binding affinity is on record?
Answer: 81 Ru

Question: Which Binding affinity does the source give for 5mer-434 (RVLQK) here?
Answer: 74 Ru

Question: For 5mer-161 (KWVTK), which Binding affinity is on record?
Answer: 52 Ru

Question: Which Binding affinity does the source give for 5mer-89 (KRITK) here?
Answer: 77 Ru

Question: 5mer-458 (RRFLK) was tested. Which Binding affinity did it give?
Answer: 65 Ru

Question: 5mer-153 (RSIQK) was tested. Which Binding affinity did it give?
Answer: 72 Ru

Question: Which Binding affinity does the source give for 5mer-154 (RSITR) here?
Answer: 54 Ru

Question: Which Binding affinity does the source give for 5mer-507 (KWVQK) here?
Answer: 84 Ru

Question: With 5mer-456 (RLVCK) as the substance, how does the Binding affinity read?
Answer: 52 Ru

Question: For 5mer-99 (RWICK), which Binding affinity is on record?
Answer: 58 Ru

Question: 5mer-205 (RWYYR) was tested. Which Binding affinity did it give?
Answer: 75 Ru

Same assay, conditions: SPR, peptides tested at 10 μM; 5mer Top sequence (top combinations)

Question: How did the Binding affinity turn out when 5mer-247 (RWYCR) was run?
Answer: 80 Ru

Question: How did the Binding affinity turn out when 5mer-220 (KRILR) was run?
Answer: 81 Ru

Same assay, conditions: SPR, peptides tested at 10 μM; 6mer-1 Bottom sequence (Table 11)

Question: How did the Binding affinity turn out when 6mer-1-804 (KRDPFR) was run?
Answer: 31 Ru

Question: For 6mer-1-862 (KKHSEK), which Binding affinity is on record?
Answer: 32 Ru

Question: With 6mer-1-838 (KRNTWK) as the substance, how does the Binding affinity read?
Answer: 17 Ru

Question: How did the Binding affinity turn out when 6mer-1-976 (RKEMIK) was run?
Answer: 40 Ru

Question: For 6mer-1-937 (RKPTNR), which Binding affinity is on record?
Answer: 34 Ru

Question: Which Binding affinity does the source give for 6mer-1-971 (RKIEMK) here?
Answer: 32 Ru

Question: With 6mer-1-946 (RRCEPR) as the substance, how does the Binding affinity read?
Answer: 31 Ru

Question: For 6mer-1-915 (RKDTWK), which Binding affinity is on record?
Answer: 27 Ru

Question: For 6mer-1-950 (RKEDKR), which Binding affinity is on record?
Answer: 29 Ru

Question: With 6mer-1-924 (RKFNWR) as the substance, how does the Binding affinity read?
Answer: 29 Ru

Same assay, conditions: SPR, peptides tested at 10 μM; 6mer-1 Top sequence

Question: For 6mer-1-588 (RRLVRK), which Binding affinity is on record?
Answer: 153 Ru

Question: Which Binding affinity does the source give for 6mer-1-441 (RRVYYR) here?
Answer: 146 Ru

Question: How did the Binding affinity turn out when 6mer-1-539 (KRGIRK) was run?
Answer: 148 Ru

Question: For 6mer-1-554 (KRSVTR), which Binding affinity is on record?
Answer: 131 Ru

Question: How did the Binding affinity turn out when 6mer-1-563 (RRSFTR) was run?
Answer: 139 Ru

Question: Which Binding affinity does the source give for 6mer-1-550 (RRLICR) here?
Answer: 148 Ru

Question: 6mer-1-457 (RKLLCR) was tested. Which Binding affinity did it give?
Answer: 121 Ru

Question: For 6mer-1-568 (KRWQQK), which Binding affinity is on record?
Answer: 147 Ru

Question: How did the Binding affinity turn out when 6mer-1-470 (KKWVYR) was run?
Answer: 148 Ru

Question: Which Binding affinity does the source give for 6mer-1-493 (KRGYLR) here?
Answer: 131 Ru

Question: How did the Binding affinity turn out when 6mer-1-446 (RRVIRR) was run?
Answer: 124 Ru

Same assay, conditions: SPR, peptides tested at 10 μM; 6mer-1 Top sequence (top combinations)

Question: Which Binding affinity does the source give for 6mer-1-149 (RRWVCK) here?
Answer: 131 Ru

Question: 6mer-1-121 (KRRYTK) was tested. Which Binding affinity did it give?
Answer: 148 Ru

Question: 6mer-1-31 (KRLYCR) was tested. Which Binding affinity did it give?
Answer: 121 Ru

Question: With 6mer-1-134 (KKSIYR) as the substance, how does the Binding affinity read?
Answer: 128 Ru

Question: With 6mer-1-124 (KRVQQK) as the substance, how does the Binding affinity read?
Answer: 137 Ru

Question: Which Binding affinity does the source give for 6mer-1-37 (KKWVLR) here?
Answer: 121 Ru

Question: With 6mer-1-122 (KKLIRK) as the substance, how does the Binding affinity read?
Answer: 139 Ru

Question: 6mer-1-184 (KRQICR) was tested. Which Binding affinity did it give?
Answer: 139 Ru

Question: For 6mer-1-106 (KRGQLK), which Binding affinity is on record?
Answer: 149 Ru

Question: 6mer-1-55 (KRSIYR) was tested. Which Binding affinity did it give?
Answer: 133 Ru

Question: 6mer-1-3 (RKRRSR) was tested. Which Binding affinity did it give?
Answer: 154 Ru

Question: 6mer-1-26 (KKRVLR) was tested. Which Binding affinity did it give?
Answer: 123 Ru

Question: Which Binding affinity does the source give for 6mer-1-14 (RKRFLK) here?
Answer: 145 Ru

Question: For 6mer-1-169 (RRQQSK), which Binding affinity is on record?
Answer: 153 Ru

Same assay, conditions: SPR; XRRGVRR-7mer and RRGVRRX-7mer

Question: How did the “Binding affinity, values relative to the RRGVRR sequence” value turn out when 3671 (RRGVRRS) [compound 3671] was run?
Answer: 118

Same assay, conditions: SPR; peptides tested at 10 μM; 5mer Bottom sequence

Question: How did the Binding affinity turn out when 5mer-1197 (KDDAR) was run?
Answer: 24 Ru

Question: With 5mer-875 (KHCNK) as the substance, how does the Binding affinity read?
Answer: 33 Ru

Question: With 5mer-1131 (KCDGK) as the substance, how does the Binding affinity read?
Answer: 14 Ru

Question: How did the Binding affinity turn out when 5mer-1144 (KAKNR) was run?
Answer: 33 Ru
